# Numbering of substitutions follows the chain as printed.
# B1: 9TL variant 22-T/I Fab (Fab, V domains shown)
# VH: QVQLVQSGAEVKKPGASVKVSCKASGYYTEAYYIHWVRQAPGQGLEWMGRIDPATGNTKYAPRLQDRVTMTRDTSTSTVYMELSSLRSEDTAVYYCASLYSLPVYWGQGTTVTVSS
# VL: DVVMTQSPLSLPVTLGQPASISCKSSQSLLYSDAKTYLNWFQQRPGQSPRRLIYQISRLDPGVPDRFSGSGSGTDFTLKISRVEAEDVGVYYCLQGTHYPVIFGQGTRLEIKR
# notes: Fab; human IgG2 CH1 and kappa CL
# B2: 9TL variant M2 Fab (Fab, V domains shown)
# VH: B1 VH
# VL: B1 VL with L94N, I102L
# notes: as for B1
# B3: 9TL variant M6 Fab (Fab, V domains shown)
# VH: B1 VH
# VL: B1 VL with L94K, I102L
# notes: as for B1
# B4: 9TL variant M7 Fab (Fab, V domains shown)
# VH: B1 VH
# VL: B1 VL with L94S, I102L
# notes: as for B1
# B5: 9TL variant C6 new Fab (Fab, V domains shown)
# VH: B1 VH
# VL: B1 VL with I102T
# notes: as for B1
# B6: 9TL variant M14 Fab (Fab, V domains shown)
# VH: B1 VH
# VL: B1 VL with H98L, I102L
# notes: as for B1
# B7: 9TL variant M1 Fab (Fab, V domains shown)
# VH: B1 VH
# VL: B1 VL with L94M, I102L
# notes: as for B1
# B8: 9TL variant M8 Fab (Fab, V domains shown)
# VH: B1 VH
# VL: B1 VL with L94Q, I102L
# notes: as for B1
# B9: 9TL variant M13 Fab (Fab, V domains shown)
# VH: B1 VH
# VL: B1 VL with T97S, I102L
# notes: as for B1
# B10: 9TL variant M9 Fab (Fab, V domains shown)
# VH: B1 VH
# VL: B1 VL with L94G, I102L
# notes: as for B1
# B11: 9TL variant M10 Fab (Fab, V domains shown)
# VH: B1 VH
# VL: B1 VL with L94S, I102L
# notes: Fab; human IgG2 CH1 and kappa CL; same printed substitution as M7
# B12: 9TL variant M11 Fab (Fab, V domains shown)
# VH: B1 VH
# VL: B1 VL with G96S, I102L
# notes: as for B1
# B13: 9TL variant M3 Fab (Fab, V domains shown)
# VH: B1 VH
# VL: B1 VL with L94C, I102L
# notes: as for B1
# B14: 9TL variant M12 Fab (Fab, V domains shown)
# VH: B1 VH
# VL: B1 VL with G96T, I102L
# notes: as for B1
# B15: 9TL variant M4 Fab (Fab, V domains shown)
# VH: B1 VH
# VL: B1 VL with L94F, I102L
# notes: as for B1
# Target: T1, biotinylated Aβ1-40 peptide (biotinylated (N-biotinylated in Example 7))
# T1 construct: captured on streptavidin (SA) chip; also called Biotinylated Aβ peptide 1-40; Aβ1-40 on SA chip
# Experiment: SPR, Fab over Aβ1-40 on SA chip
# Description: (§1) Affinities of 9TL Fab fragment and its variants Fab fragments were determined by Surface Plasmon Resonance (SPR) system (BIAcore 3000™, BIAcore, Inc., Piscaway, N.J.). SA chips (streptavidin) were used according to the supplier's instructions. Biotinylated Aβ peptide 1-40 was diluted into HBS-EP (10 mM HEPES pH 7.4, 150 mM NaCl, 3 mM EDTA, 0.005% P20) and injected over the chip at a concentration of 0.005 mg/mL. Using variable flow time across the individual chip channels, two ranges of antigen density were achieved: 10-200 response units (RU) for detailed kinetic studies and 500-600 RU for concentration studies and screening. […] HBS-EP buffer was used as running buffer for all the BIAcore assays. […] The concentrations of the Fab proteins were determined by ELISA and/or SDS-PAGE electrophoresis using a standard Fab of known concentration (determined by amino acid analysis). Kinetic association rates (kₒₙ) and dissociation rates (koff) were obtained simultaneously by fitting the data to a 1:1 Langmuir binding model (Karlsson, R. Roos, H. Fagerstam, L. Petersson, B. (1994). Methods Enzymology 6. 99-110) using the BIAevaluation program. Equilibrium dissociation constant (KD) values were calculated as koff/kₒₙ.
# (§2) All amino acid substitutions of the variants shown in Table 3 are described relative to the sequence of 9TL. KD and other kinetic parameters were determined by BIAcore analysis described above with Aβ₁₋₄₀ immobilized on SA chip.
# T1 sequence (peptide, as listed by the source): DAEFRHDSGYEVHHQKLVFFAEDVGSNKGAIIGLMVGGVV
koff [s⁻¹],kon [M⁻¹ s⁻¹],Binder
0.00046,–,B1
0.0011,–,B2
0.0041,–,B3
0.006,–,B4
0.00092,356000,B5
0.0016,–,B6
0.00086,–,B7
0.0068,–,B8
0.00039,–,B9
0.0078,–,B10
0.0083,–,B11
0.002,–,B12
0.0013,–,B13
0.0033,–,B14
0.000995,–,B15

# Target: T1, biotinylated Aβ1-40 peptide
# Experiment: SPR, Fab over Aβ1-40 on SA chip; KD=koff/kon
# Description: as §1, §2
row,Kd [nM],Binder
1,1.45,B1
2,3.46,B2
3,12.9,B3
4,18.9,B4
5,2.58,B5
6,5.03,B6
7,2.7,B7
8,21.4,B8
9,1.23,B9
10,24.5,B10
11,26.1,B11
12,6.29,B12
13,4.09,B13
14,10.4,B14
15,3.13,B15

# Target: T1, biotinylated Aβ1-40 peptide
# Experiment: SPR, Fab over Aβ1-40 on SA chip; kon may be assumed = 9TL (footnote 2)
# Description: as §1, §2
row,kon [M⁻¹ s⁻¹],Binder
1,318000,B1
2,318000,B2
3,318000,B3
4,318000,B4
5,318000,B6
6,318000,B7
7,318000,B8
8,318000,B9
9,318000,B10
10,318000,B11
11,318000,B12
12,318000,B13
13,318000,B14
14,318000,B15

# — US20090022728A1 (RINAT NEUROSCIENCE, published 2009)
